Measurements: patent US20220119513A1 (ZOETIS SERVICES, published 2022)

Legend:
[1] = molecular target: T1, TGFβ1 (R&D Systems); assay: SPR, TGFβ on chip
T1 construct: also called TGFB1
Text: (§1) To avoid affinity differences associated with differential surface preparation that can occur when immobilizing antibodies to surfaces, TGFβ1, TGFβ2, and TGFβ3 (R&D Systems) were directly conjugated to the individual surface. Immobilization was obtained by amine coupling […] using N-hydroxysuccinimide (NHS)/1-Ethyl-3-(3-dimethylaminopropyl) carbodiimide (EDC) chemistry. Chips were quenched with ethanolamine and the affinity with which all candidate mAbs bound to the immobilized TGFβ was evaluated. All curves were fit to a 1:1 model. Affinities <10⁻¹¹ are below the lower limit of quantitation of detection for the instrument.

[2] = molecular target: T2, TGFβ2 (R&D Systems); assay: SPR, TGFβ on chip
T2 construct: also called TGFB2
T2 sequence (P61812 303-414, species assumed, looked up): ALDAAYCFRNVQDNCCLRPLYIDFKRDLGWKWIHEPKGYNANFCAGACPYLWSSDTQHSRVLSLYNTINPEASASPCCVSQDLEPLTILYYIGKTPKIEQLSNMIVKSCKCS
Text: as §1

[3] = molecular target: T3, TGFβ3 (R&D Systems) (Homo sapiens (Human), UniProt P10600 301-412, Active TGFβ3 is a disulfide-linked homodimer of this chain; one copy is given.); assay: SPR, TGFβ on chip
T3 construct: also called TGFB3
T3 sequence: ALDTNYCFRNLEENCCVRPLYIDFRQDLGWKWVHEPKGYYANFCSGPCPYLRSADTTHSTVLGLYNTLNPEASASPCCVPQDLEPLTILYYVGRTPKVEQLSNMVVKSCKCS
Text: as §1

[4] = molecular target: T1, TGFβ1 (R&D Systems); assay: cell-based or functional assay
[5] = molecular target: human TGFβ1 (PeproTech) (human, UniProt P01137 279-390); assay: HDX-MS epitope mapping, TGFβ1 with and without mAb
Experimental: Hydrogen Deuterium Exchange (HDX) experiments were used to determine the epitopes on TGFβ1 to which each antibody series binds. This method establishes the peptide level epitope on TGFβ1 targeted by each mAb by HDX mass spectrometry. For each mAb analysis, TGFβ1 is incubated in deuterium oxide in the presence and absence of mAb, is digested, and fragments are then analyzed and compared for hydrogen/deuterium exchange via mass spectrometry.
More specifically, the method was carried out as follows: One milligram of TGFβ1 was reconstituted in 500 μL control buffer (50 mM phosphate, 100 mM sodium chloride at pH 7.4). […] The mass spectra were recorded in MS only mode.
For pepsin digestion, 10 μg of human TGFβ1 in 80 μL control buffer (50 mM phosphate, 100 mM sodium chloride at pH 7.4) was denatured by adding 160 μL of 8 M urea, 0.85 M TCEP buffer (final pH is 4.0) and incubating the mixture for 3 min at 6° C. Then, the mixture was subjected to pepsin digestion using an-house packed pepsin column (2.1×30 mm) at 11° C. and the resultant peptides was analyzed using a UPLC-MS system comprised of a Waters Acquity UPLC coupled to a Q Exactive™ Hybrid Quadrupole-Orbitrap Mass Spectrometer (Thermo). […]

[6] = molecular target: T1, TGFβ1 (R&D Systems); assay: SPR
[7] = molecular target: canine TGFβ1 (canine, UniProt P54831 279-390, limits assumed); assay: SPR, TGFβ on chip
Text: as §1

[8] = molecular target: T4, canine TGFβ2 (canine, UniProt A0A8I3PZZ6 331-442); assay: SPR, TGFβ on chip
T4 sequence: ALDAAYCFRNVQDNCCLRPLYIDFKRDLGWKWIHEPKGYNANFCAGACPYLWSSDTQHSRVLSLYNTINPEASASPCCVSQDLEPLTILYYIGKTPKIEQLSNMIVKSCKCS
Text: as §1

[9] = molecular target: T5, canine TGFβ3 (canine, UniProt A0A8I3S1P1 346-457); assay: SPR, TGFβ on chip
T5 sequence: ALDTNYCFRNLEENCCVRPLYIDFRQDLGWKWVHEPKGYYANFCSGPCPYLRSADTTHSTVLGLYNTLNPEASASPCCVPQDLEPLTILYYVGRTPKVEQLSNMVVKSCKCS
Text: as §1

[10] = molecular target: T3, TGFβ3 (R&D Systems); assay: cell-based or functional assay
[11] = molecular target: T1, TGFβ1 (R&D Systems); assay: cell-based or functional assay; remark: listed apart in the source

T1 sequence (P01137 279-390): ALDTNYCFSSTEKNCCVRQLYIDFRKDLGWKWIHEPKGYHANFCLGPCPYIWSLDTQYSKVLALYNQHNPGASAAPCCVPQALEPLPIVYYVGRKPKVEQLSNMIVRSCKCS
Chain of canine TGFβ1 (P54831 279-390 limits assumed): as the sequence (P01137 279-390) above
Chain of human TGFβ1 (PeproTech) (P01137 279-390 limits assumed): as the sequence (P01137 279-390) above

| Binder | Kd [1] [nM] | Kd [2] [nM] | Kd [3] [nM] | CMVIC pSmad-3, IC50 [4] [nM] | binding result [5] | Kd [6] [nM] | Kd [7] [nM] | Kd [8] [nM] | Kd [9] [nM] | CMVIC pSmad-3, IC50 [10] [nM] | IC50 (read off the curve), inhibition of TGFβ1-induced SMAD3 signalling [panel TGFβ1] [11] [µg/mL] |
| --- | --- | --- | --- | --- | --- | --- | --- | --- | --- | --- | --- |
| 04H09 (mouse) (antibody, V domains shown, mouse IgG, kappa, purified from hybridoma; also called mouse 04H09 monoclonal antibody; 04H09 (murine)) VH: QVQLQQSGAELVKPGASVKISCKASGYAFSSSWMNWVKQRPGKGLEWIGQIYPGDGDTNYNGKFKGKATLTADKSSSTAYMQLSSLTSEDSAVYFCARHYDGSTDYWGQGTTLTVSS VL: DIQMTQSPASLSVSVGETVTITCRASENIYSNLAWYQQKQGKSPQLLVYAATNLADGVPSRFSGSGSGTQYSLKINSLQSEDFGSYYCQHFWGTPYTFGGGTKLEIK | 0.0443 | 7.13 | 1.26 | 4.66 | binds | – | – | – | – | – | – |
| felHclb 1-1YMN (antibody, V domains shown, also called felHclbH1-1YMN/felHclbK1-1; felHcLb-H1-1MN) VH: QVLLVQSGAEVRTPGASVKIFCKASGYIFITYYMNWVRQSPAQGLEWMGSIFPASGSTSYAQKFQGRLTLTADTSTNTAYMELSSLRSADTAMYYCARGDGNYALDAMDYWGQGTSVTVSS VL: EIQMTQSPSSLSASPGDRVTITCRASESVDSYGNSFMHWYQQKPGKVPKLLIYLASNLESGVPSRFSGSGSGTDFTLTISSLEPEDAATYYCQQNNEDPLTFGAGT | – | – | – | – | – | 263000 | – | – | – | – | – |
| Can04H09 VH1/VL4 (antibody, V domains shown) VH: EVQLVQSGAEVKKPGASVKVSCKTSGYTFISSWMNWVRQAPGAGLDWMGQIYPGDGDTNYNGKFKGRVTLTADTSTSTAYMELSSLRAGDIAVYYCARHYDGSTDYWGQGTLVTVSS VL: EIVMTQSPASLSLSQGEKVTITCRASENIYSNLAWYQQRPGQAPKLLIYAATNLADGVPSRFSGSGSGTDFSLTISSLEPEDVAVYYCQHFWGTPYTFGQGTK | – | – | – | 0.88 | – | – | 2.18 | 29.7 | 4.78 | 136 | ~0.2 |
